Source: patent publication US12570725 (DUKE UNIVERSITY, dated 2026)

Assays:
Assay in all cases: cell-based or functional assay
[1] = biological target: Dengue virus serotype 4 virion (Dengue virus serotype 4)
[2] = biological target: Dengue virus serotype 2 virion (Dengue virus serotype 2)
[3] = biological target: Dengue virus serotype 1 virion (Dengue virus serotype 1)
[4] = biological target: Dengue virus serotype 3 virion (Dengue virus serotype 3)

Measured: FRNT50

B1: 119-1-D7 (antibody, V domains shown)
VH: EVQLVESGGGLVKPGGSLRLSCVASGFTFNIYNMNWVRQAPGRGLEWVSSISLSSSYIDYADSVEGRFTISRDNAKNSLSLQMNSLKAEDTAVYYCARGRRGEWLVLHDAFDLWGQGTLVTVSS
VL: EIVLTQSPDTLSLSPGEGATLSCRASRTITSTYLAWYQQKPGQAPRLLMYSVSTRAPGIPDRFSGSGSGTDFTLTISRLEPEDFAVYFCQQYGSTPPYTFGQGTKLEIR
> 5 µg/mL: [1] | [2] | [3] | [4]
